Assays:
[1] = target: T1, human neonatal Fc receptor (FcRn) (human, UniProt P55899 24-297; P61769 21-119, limits assumed); experiment: SPR Biacore T200, 37 °C, pH 6.0
T1 construct: Recombinant human FcRn; also called human FcRn; recombinant human neonatal receptor
Experimental: (§1) Table 17 legend/description: Comparison of binding affinity of 28Y042-7F11-1 and mepolizumab for human FcRn at pH 6.0 and pH 7.4.
(§2) The binding affinity of 28Y042-7F11-1 and mepolizumab to human FcRn at pH 6.0 and pH 7.4 was assessed using a BIACORE T200 instrument at 37° C. Human recombinant IL-5 was diluted in acetate buffer pH 5.0 and immobilised to a level of 535 RU by amine coupling on to a CMS chip (GE, BR100530). 28Y042-7F11-1 or mepolizumab were captured by flowing (5 μl/min) a 100 nM solution of either mAb in HBS-EP (Teknova, H8022) buffer for 24 seconds over the chip surface. Following capture of the antibody via the immobilised IL-5, cycles of varying concentrations (0.5 μM to 32 μM) of human FcRn were flowed over the chip surface at 5 μ1/min for 120 seconds contact time followed by 80 seconds dissociation for each cycle. At the completion of each cycle, the chip surface was regenerated using 10 mM Glycine pH 1.5 for 5 seconds at 50 μ1/min followed by 10mM NaOH for 5 seconds at 50 μl/min. FcRn cycles were performed for each concentration at pH 6.0 (HBS-EP+, Teknova, Cat: H8022, pH 6.0) and pH 7.4 (HBS-EP). A molecular weight of 42929 Da for human FcRn was used in the calculations.

[2] = target: T2, human complement component C1q (human, UniProt P02745 23-245; P02746 28-253; P02747 29-245); experiment: ProteOn XPR36 SPR, antibody immobilised, C1q as analyte, equilibrium model
T2 construct: C1q from Sigma (C1740); also called human recombinant soluble complement C1q
Experimental: Binding of 28Y042-7F11-1 to human recombinant soluble complement C1q was assessed using the PROTEOn XPR36 (BioRad™) biosensor instrument. A control antibody containing the YTE change to its Fc region was included as a control.
The antibodies to be tested were immobilised on a GLC chip (Bio-Rad, 176-5011) by primary amine coupling (GE Healthcare, BR-1000-50). Recombinant C1q (Sigma, C1740) was passed over the immobilised antibodies at 512 nM, 128 nM, 32 nM, 8 nM, 2 nM and 0 nM (i.e., buffer alone) and a blank activated and deactivated flow cell was used to double reference binding curves. The running buffer for binding analysis was HBS-EP (pH7.4, Teknova, H8022) with 10 mM CaCl₂. Data were fitted to the equilibrium model, inherent to the PROTEON XPR36 (BioRad™) analysis software using a global R-max value.

[3] = target: T1, human neonatal Fc receptor (FcRn); experiment: ProteOn SPR, human FcRn, pH 7.4
human IL-5 (recombinant) [4] = target: T3, human IL-5 (recombinant) (human, UniProt P05113 20-134); experiment: KinExA solution phase affinity, 25 °C
T3 construct: exact recombinant constructs are not described; also called recombinant human IL-5; human IL-5 cytokine
Experimental: Kinetic analyses were performed to compare 28Y042-7F11-1, mepolizumab, and GSK3559090A (a comparator IgG1 anti-IL-5 mAb molecule based). Due to the high affinity of 28Y042-7F11-1, it was not possible to accurately determine the dissociation rate by Biacore 4000 at 25° C.; therefore KINEXA analysis was used to calculate an accurate affinity for 28Y042-7F11-1 binding to human IL-5 at 25° C.
Solution phase affinity measurements were made using Sapidyne's KINEXA 3200 instrument. The method relied on the detection of free antibody at equilibrium in a titrated series of antigen concentrations. For detection, a bead matrix was created using NHS-activated SEPHEROSE beads (GE Healthcare, 17-0906-01) coated with human IL-5. For affinity determination, a fixed concentration of antibody was incubated with a dilution series of human IL-5 concentrations and binding was allowed to reach equilibrium before the samples were run on the KINEXA 3200 instrument. Each solution was passed over an aliquot of the antigen beads where free antibody bound to the antigen coated beads and was detected using an anti-human IgG antibody (DYLIGHT 649-AFFINIPURE F(ab′)2 fragment goat anti-human IgG; Jackoson Immunoresearch, 109-496-170), with fresh antigen beads used to measure each sample.

[5] = target: T1, human neonatal Fc receptor (FcRn); experiment: ProteOn SPR, human FcRn, pH 6.0
human IL-5 (recombinant) [6] = target: T3, human IL-5 (recombinant); experiment: SPR Biacore T200, 37 °C
cynomolgus IL-5 = target: T4, cynomolgus IL-5 (cynomolgus); experiment: SPR Biacore T200, 37 °C
T4 construct: also called cyno IL-5

human IL-5 (recombinant) [7] = target: T3, human IL-5 (recombinant); experiment: cell-based or functional assay
[8] = target: T1, human neonatal Fc receptor (FcRn); experiment: SPR Biacore T200, 37 °C, pH 6.0, antibody captured on immobilised IL-5, FcRn as analyte
Experimental: as §1, §2

[9] = target: T1, human neonatal Fc receptor (FcRn); experiment: ProteOn SPR, human FcRn, pH 6.0; remark: listed apart in the source
[10] = target: T1, human neonatal Fc receptor (FcRn); experiment: SPR Biacore T200, 37 °C, pH 7.4, antibody captured on immobilised IL-5, FcRn as analyte
Experimental: as §1, §2

human IL-5 (recombinant) [11] = target: T3, human IL-5 (recombinant); experiment: SPR Biacore 4000, 25 °C, antibody captured on protein A, human IL-5 as analyte

T2 sequence (P02745 23-245 limits assumed, chain 1 of 3): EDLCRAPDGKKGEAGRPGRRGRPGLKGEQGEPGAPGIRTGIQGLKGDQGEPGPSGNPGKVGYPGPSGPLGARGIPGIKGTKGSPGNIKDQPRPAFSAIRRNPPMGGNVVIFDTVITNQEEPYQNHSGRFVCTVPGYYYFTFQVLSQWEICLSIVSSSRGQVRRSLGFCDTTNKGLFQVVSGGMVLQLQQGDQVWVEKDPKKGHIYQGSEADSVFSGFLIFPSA
T2 sequence (P02746 28-253 limits assumed, chain 2 of 3): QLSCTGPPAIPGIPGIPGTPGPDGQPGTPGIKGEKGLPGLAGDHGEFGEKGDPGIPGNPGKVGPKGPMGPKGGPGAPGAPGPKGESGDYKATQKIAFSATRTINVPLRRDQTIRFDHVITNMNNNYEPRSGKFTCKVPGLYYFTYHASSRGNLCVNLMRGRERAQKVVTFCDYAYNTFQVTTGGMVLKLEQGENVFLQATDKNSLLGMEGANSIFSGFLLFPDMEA
T2 sequence (P02747 29-245 limits assumed, chain 3 of 3): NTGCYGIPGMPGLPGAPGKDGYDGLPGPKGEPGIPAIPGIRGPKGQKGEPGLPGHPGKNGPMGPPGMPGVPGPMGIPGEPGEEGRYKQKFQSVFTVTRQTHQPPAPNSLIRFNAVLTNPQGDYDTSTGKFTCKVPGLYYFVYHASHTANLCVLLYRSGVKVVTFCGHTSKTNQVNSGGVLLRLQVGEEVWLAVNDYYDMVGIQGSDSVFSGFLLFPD

B1: 28Y042-7F11-1 (antibody, human IgG1, kappa)
heavy: QVTLRESGPALVKPTQTLTLTCTVSGFSLTGSSVHWVRQPPGKGLEWLGVIWASGGTDYNSALMSRLSISKDTSRNQVVLTMTNMDPVDTATYYCARDPPSGLLRLDYWGRGTLVTVSSASTKGPSVFPLAPSSKSTSGGTAALGCLVKDYFPEPVTVSWNSGALTSGVHTFPAVLQSSGLYSLSSVVTVPSSSLGTQTYICNVNHKPSNTKVDKRVEPKSCDKTHTCPPCPAPELLGGPSVFLFPPKPKDTLYITREPEVTCVVVDVSHEDPEVKFNWYVDGVEVHNAKTKPREEQYNSTYRVVSVLTVLHQDWLNGKEYKCKVSNKALPAPIEKTISKAKGQPREPQVYTLPPSREEMTKNQVSLTCLVKGFYPSDIAVEWESNGQPENNYKTTPPVLDSDGSFFLYSKLTVDKSRWQQGNVFSCSVMHEALHNHYTQKSLSLSPGK
light: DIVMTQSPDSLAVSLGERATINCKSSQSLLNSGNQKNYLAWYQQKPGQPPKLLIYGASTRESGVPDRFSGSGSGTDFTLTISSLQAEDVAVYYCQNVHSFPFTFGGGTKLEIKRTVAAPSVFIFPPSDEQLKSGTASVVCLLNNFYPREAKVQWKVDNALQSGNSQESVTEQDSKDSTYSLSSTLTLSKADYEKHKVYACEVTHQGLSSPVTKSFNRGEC
notes: Recombinant humanized monoclonal antibody, IgG1 kappa, two heavy and two light chains; also called GSK3511294
Q: With B1 as the binder, how does the “fold increase in affinity compared to mepolizumab” value [1] read?
A: Its value is roughly 13 fold.

Q: What about the Kd [2] of the same binder?
A: The Kd was 750 nM.

Q: What about the Kd [3] of the same binder?
A: The Kd was 2650 nM.

Q: And the Kd (human IL-5 (recombinant) [4])?
A: The Kd was 0.0105 nM.

Q: What about the Kd [5] of the same binder?
A: Its Kd is 130 nM.

Q: And the Kd (human IL-5 (recombinant) [6])?
A: The Kd was 0.0391 nM.

Q: What about the Kd (cynomolgus IL-5) of the same binder?
A: The Kd was 0.0239 nM.

Q: And the “IC50 in the TF-1 cell assay after thermal stress (1 week at 40 °C in acetate or phosphate buffer)” value (human IL-5 (recombinant) [7])?
A: Its value is 0.004 to 0.005 nM.

Q: And the “IC50 of inhibition of human IL-5 induced TF-1 cell proliferation” value (human IL-5 (recombinant) [7])?
A: Its value is 0.004 nM.

Q: And the “fold improvement in TF-1 cell assay potency compared to mepolizumab” value (human IL-5 (recombinant) [7])?
A: Its value is roughly 30 fold.

Q: And the Kd [8]?
A: The Kd was 157 nM.

Q: And the “fold increase in affinity compared to the human IgG1 wild type control” value [9]?
A: Its value is roughly 3 fold.

Q: What about the Kd [10] of the same binder?
A: Its Kd is 16200 nM.

B2: mepolizumab (antibody)
chain 1: not shown
chain 2: not shown
Q: Which results are given for B2?
A: Kd (human IL-5 (recombinant) [11]): 0.123 nM; IC50 of inhibition of human IL-5 induced TF-1 cell proliferation (human IL-5 (recombinant) [7]): 0.105 nM; Kd [8]: 2080 nM

From US20210017269A1 (GlaxoSmithKline, published 2021)
